Laboratory results published in publication PMC2719906.

Molecular target: WASP GBD (GTPase binding domain, residues 242-310) (UniProt P42768)
Experiment: NMR titration

Chain of EspFU R5 (five-repeat fragment) (P0DJ88 80-314): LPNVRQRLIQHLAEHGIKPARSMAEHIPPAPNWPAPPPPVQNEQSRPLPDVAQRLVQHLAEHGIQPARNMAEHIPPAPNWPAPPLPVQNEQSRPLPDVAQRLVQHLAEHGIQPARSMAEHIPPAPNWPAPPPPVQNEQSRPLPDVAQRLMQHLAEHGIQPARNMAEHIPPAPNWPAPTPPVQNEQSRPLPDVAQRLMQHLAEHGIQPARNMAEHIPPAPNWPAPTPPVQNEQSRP
Chain of WASP GBD (GTPase binding domain, residues 242-310) (P42768 242-310): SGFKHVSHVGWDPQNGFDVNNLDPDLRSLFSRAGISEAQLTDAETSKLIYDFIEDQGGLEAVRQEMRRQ

**Q.** For “EspFU R5 (five-repeat fragment) (from UniProt P0DJ88 80-314) (domain or fragment)”, which stoichiometry N is on record?
**A.** 0.2 EspFU:GBD
